Data on 1 molecule can be found in patent publication US20090111104A1, “Method for Monitoring Hydrolytic Activity” (Fluorotechnics Pty Limited, priority 2005, published 2009).

The target of one experiment is T1, BSA (Bos taurus, UniProt P02769).
T1 construct: purchased Sigma-Aldrich A3059
The experiment can be described thus: Sub-sampled BSA tryptic digest visualised by SDS-PAGE (Deep Purple stain). It counts as biochemical, bovine. On the procedure:
A.3.4 Visualization of Trypsin Digests in SDS-PAGE • 1 The reduced and denatured BSA sample from 3.2 above was diluted 10-fold in 50 mM bicine buffer (25 μL+225 μL bicine buffer). BSA molar concentration was calculated to be approx. 4 μM. • 2 One hundred microliter of the sample (step 1) was added to a 1.5 mL microtube. Controls included a bicine-based digestion buffer and an undigested BSA sample (no trypsin). • 3 Epicocconone stock solution was diluted 100-fold in 50 mM bicine. One hundred microliter of diluted epicocconone solution was added to each corresponding well. The final concentration was 12 μM. […] At each sampling point, 15 μL of the samples were taken out, immediately mixed with 15 μL of a protein gel loading buffer (2×), denatured for 5 min at 85° C., and stored at −80° C. • 6 The sub-samples collected as described above were run by SDS-PAGE (Nupage, 12% BT gel), and gels were stained with Deep Purple for visualization. • 7 The Deep Purple-stained gels were imaged by Typhoon scanner (Ex:Em=532:560 LP; 440 PMT). • 8 All the gel lanes showing digested (FIG. 12A) and undigested (FIG. 12B) protein samples were equally gated, and the fluorescent intensity was measured by ImageQuant (v 5.2) software.
The results from the subsampled reaction was similarly analysed but without the term associated with degradation of the signal with time as this is not relevant in gels. […]

The target in a further experiment is T2, carbonic anhydrase (CA) (Bos taurus, UniProt P00921).
T2 construct: purchased Sigma-Aldrich C7025
T2 sequence (P00921 whole entry): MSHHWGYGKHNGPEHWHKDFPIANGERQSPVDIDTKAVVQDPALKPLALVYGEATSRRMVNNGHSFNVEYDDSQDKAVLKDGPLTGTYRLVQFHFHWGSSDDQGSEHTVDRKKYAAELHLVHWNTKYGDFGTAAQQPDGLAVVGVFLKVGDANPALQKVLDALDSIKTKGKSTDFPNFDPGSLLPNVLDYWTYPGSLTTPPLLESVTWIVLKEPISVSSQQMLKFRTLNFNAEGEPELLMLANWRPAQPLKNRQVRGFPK
The experiment can be described thus: Real-time monitoring of tryptic digestion of carbonic anhydrase using epicocconone with and without SDS. It counts as biochemical, bovine. On the procedure:
• 1 Trypsin digestion was carried out in bicine buffer (pH 8.4) • 2 Protein samples were prepared in 10 mg/mL in 100 mM bicine buffer. • 3 One hundred microliter of the protein sample was used for trypsin digestion.
• 4. The 100 μL of protein samples was reduced by adding 1 μL of 10% SDS and 5 μL of DTT stock for 10 min at 80° C. • 5. Another sample was reduced with only 5 μL of DTT stock for 10 min at 80° C. (no SDS) • 3 The samples were alkylated by adding 4 μL of the iodoacetamide stock at room temperature for 45 min-1 hr. • 4 The remaining iodoacetamide of the samples were neutralised by adding 20 μL of the DTT at room temp for 45 min-1 hr. […] Fluorescence development was monitored in real time every 2 minutes up to 400 minutes using FluoStar (Ex/Em=540±10/[…]±10). • 16. […]
Progress curves were fitted as per Example 6. […] In the presence of a non-denaturing quantity of detergent (open squares) carbonic anhydrase (CA) becomes more hydrophobic and has an increase in fluorescence when exposed to a fluorophore that is sensitive to its environment such as epicocconone. Upon addition of trypsin, the fluorescence drops as per Example 6 but in the sample with no SDS (inverted triangles) the change in fluorescence is reduced by more than 50% compared to in the presence of SDS (open circles). […]

T1 sequence (P02769 25-607): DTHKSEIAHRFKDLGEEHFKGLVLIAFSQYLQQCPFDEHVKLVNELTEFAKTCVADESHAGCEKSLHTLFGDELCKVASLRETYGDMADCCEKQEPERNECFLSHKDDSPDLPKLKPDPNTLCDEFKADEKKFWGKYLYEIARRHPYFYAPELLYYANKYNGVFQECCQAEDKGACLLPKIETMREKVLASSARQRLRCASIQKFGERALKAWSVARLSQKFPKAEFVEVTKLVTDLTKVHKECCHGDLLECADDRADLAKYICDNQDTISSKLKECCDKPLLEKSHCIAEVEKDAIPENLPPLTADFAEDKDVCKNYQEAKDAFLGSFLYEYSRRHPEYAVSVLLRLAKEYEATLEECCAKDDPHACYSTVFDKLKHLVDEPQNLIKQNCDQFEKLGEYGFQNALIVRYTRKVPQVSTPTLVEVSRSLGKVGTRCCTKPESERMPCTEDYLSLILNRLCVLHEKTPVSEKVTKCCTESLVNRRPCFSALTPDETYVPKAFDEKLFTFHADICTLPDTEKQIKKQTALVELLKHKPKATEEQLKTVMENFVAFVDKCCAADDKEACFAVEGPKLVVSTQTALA

B1: trypsin: Proteomics grade trypsin protease, Sigma-Aldrich T6567 (protein, UniProt P00761 9-231, looked up)
Trypsin: IVGGYTCAANSIPYQVSLNSGSHFCGGSLINSQWVVSAAHCYKSRIQVRLGEHNIDVLEGNEQFINAAKIITHPNFNGNTLDNDIMLIKLSSPATLNSRVATVSLPRSCAAAGTECLISGWGNTKSSGSSYPSLLQCLKAPVLSDSSCKSSYPGQITGNMICVGFLEGGKDSCQGDSGGPVVCNGQLQGIVSWGYGCAQKNKPGVYTKVCNYVNWIQQTIAAN
Regarding B1, the “time for digestion to reach completion” value in the experiment with BSA (SDS-PAGE, bicine and carbonate (NH4HCO3) digestion buffers) was 0.5 to 1 h. Further, in the experiment with BSA (sub-sampled reaction, gel fluorescence intensity, 0-128 min), the “apparent first order rate constant” value amounted to 0.3136 min⁻¹. Besides, the observed rate constant in the experiment with carbonic anhydrase (CA) (with SDS) and with carbonic anhydrase (CA) (without SDS) was 0.025 min⁻¹ throughout.
